Source: publication PMC4498786, “Dimerization-Induced Allosteric Changes of the Oxyanion-Hole Loop Activate the Pseudorabies Virus Assemblin pUL26N, a Herpesvirus Serine Protease” (PLoS Pathogens, 2015)

B1: pseudorabies virus (PrV) assemblin pUL26N, protease domain of pUL26, residues 1-224 (enzyme)
chain: MGPVYVSGYLALYDRDGGELALTREIVAAALPPAGPLPINIDHRPRCDIGAVLAVVDDDRGPFFLGVVNCPQLGAVLARAVGPDFFGDMRLSDEERLLYLLSNYLPSASLSSRRLAPGEAPDETLFAHVALCVIGRRVGTIVVYDASPEAAVAPFRQLSARARSELLARAAESPDRERVWHMSEEALTRALLSTAVNNMLLRDRWELVAARRREAGVRGHTYLQ
notes: also called PrV protease; VP24
B2: diisopropyl fluorophosphate-inhibited pseudorabies virus (PrV) assemblin pUL26N, residues 1-224 (enzyme)
chain: B1 chain

How the values were obtained:
[1] = biological target: the molecule itself; assay: small-angle X-ray scattering (SAXS)
crystal structure = biological target: the molecule itself; assay: crystal structure

Row | Protein | stoichiometry N [1] | stoichiometry N (crystal structure)
1 | B1 | 2 | 
2 | B2 |  | 2
